Source: patent US20050287132A1, “Biliverdin reductase fragments and variants, and methods of using biliverdin reductase and such fragments and variants” (University of Rochester, priority 1999, published 2005)

Assays:
PKC = test: Effect of BVR and peptides on PKC activity (MBP substrate, kinetic analysis); format: biochemical; settings: for Vmax of the PKC reaction with respect to ATP / Vmax of the PKC reaction with respect to MBP: in the presence of 50 μM BVR or peptide; for Km for the substrate (MBP) of the PKC reaction: in the presence of 50 μM peptide; for nature of kinetics with respect to substrate concentration: MBP varied
Experimental: FIGS. 11A-C are graphs depicting the role of BVR in increasing protein kinase C activity. FIG. 11A depicts the dose-dependence of PKC activity in the presence of BVR or PKC inhibitor peptide (“PKCI”) in an assay system containing 0.5 μg/ml PKC, 50 μM unlabeled ATP, 5 μCi[^32γP]-ATP and 1 mg/ml MBP and carried out as described infra. FIGS. 11B-C are the kinetic analyses of PKC activity carried out with respect to MBP (FIG. 11B) and with respect to ATP (FIG. 11C) in the presence or absence of 50 μM BVR.
FIGS. 12A-C are graphs illustrating the effect of various rBVR fragments on PKC activity. Protein kinase C was incubated at 30° C. with buffer or with the indicated peptides (50 μM) for 15 min prior to addition to a kinase assay using MBP as substrate. FIG. 12A depicts the relative activity for each sample normalizing to that of the PKC and buffer control value. FIGS. 12B-C are the kinetic analyses of PKC with respect to substrate MBP (FIG. 12B) and ATP (FIG. 12C) in the presence or absence of BVR peptide fragments (50 μM). BVR1 peptide corresponds to SEQ. ID. No. 34 and BVR2 peptide corresponds to SEQ. ID. No. 19.
Incubation time was 8 min at 30° C.

[1] = Biliverdin reductase activity of E. coli expressed hBVR wild type and mutants (Example 1); format: biochemical, human; settings: for Activity (nmol bilirubin/min/mg) pH 6.7 + NADH: pH 6.7, NADH cofactor; for Activity (nmol bilirubin/min/mg) pH 6.7 + NADH / Activity (nmol bilirubin/min/mg) pH 8.7 + NADPH: 25°; for Activity (nmol bilirubin/min/mg) pH 8.7 + NADPH: pH 8.7, NADPH cofactor; for Activity % pH 6.7 + NADH / Activity % pH 8.7 + NADPH: Cys→Ala mutations; for Activity % pH 6.7 + NADH: wild type = 100, pH 6.7, NADH; for Activity % pH 8.7 + NADPH: wild type = 100, pH 8.7, NADPH
Experimental: SalI linkers are underlined in each primer. The products were digested with SalI and cloned into the vector pGEX 4T-2. Orientation was determined by restriction analysis and confirmed by sequencing. The ligation places the BVR coding region in frame with the GST protein of the vector. GST-BVR fusion proteins were purified from bacterial clones containing the plasmid, and grown overnight using a glutathione-sepharose 4B column (Pharmacia). The reductase portion of the fusion protein was released by thrombin protease treatment.
Activity was determined as previously described (Kutty et al., J. Biol. Chem. 256:3956-3962 (1981); Huang et al., J. Biol. Chem. 264:7844-7849 (1989), which are hereby incorporated by reference). Activity was determined in a 1 ml assay volume that contained 0.1 M Tris/HCl, pH 8.7 NADPH (100 μM), and biliverdin (5 μM). Reductase activity was also measured using NADH (1 mM) as the cofactor; in this case 0.1 M potassium phosphate pH 6.75, was substituted for Tris/HCl. SDS/PAGE was performed by the method of Laemmli, Nature 227:680-685 (1970), which is hereby incorporated by reference. Western blot analysis was performed using anti-serum to human kidney biliverdin reductase as previously described (Maines et al., Arch. Biochem. Biophys. 300:320-326 (1993), which is hereby incorporated by reference). The relative amounts of immunoreactive protein were determined by scanning the blot using a laser densitometer and comparing the area under the peak for each mutant with the wild type. The rate of activity was measured as the increase in 450 nm absorbance at 25° C. Specific activity is expressed as nmol bilirubin/min/ mg protein.

[2] = Biliverdin reductase catalytic activity of recombinant wild type and mutant hBVR (Example 2, FIG. 3); format: biochemical, human; settings: pH/cofactor not stated
Experimental: FIGS. 3A-C are graphs depicting the effects of mutation of Gly^17, Ser^149, and Lys^296 on BVR catalytic activity. Purified preparations of recombinant wild type and mutant BVR with substitution of Gly^17 (FIG. 3A), Ser^149 (FIG. 3B), or Lys^296 (FIG. 3C) with Ala were assessed for BVR activity at pH 6.5 using NADH as cofactor and at pH 8.7 with NADPH as cofactor. Values presented are in percent wild type activity for each pH. The specific activity of the wild type preparation was 1744 nmol bilirubin produced min^−1 mg^−1 at pH 6.5 and 1147 nmol bilirubin produced min^−1 mg^−1 at pH 8.7. Values presented are representative of 2-4 determinations.
GST-BVR fusion proteins were prepared as described in Example 1. Human kidney biliverdin reductase was purified to homogeneity as described by Maines et al., Arch. Biochem. Biophys. 300:320-326 (1993), which is hereby incorporated by reference. The purified reductase preparations were judged to be homogenous by SDS-PAGE. Protein concentration was determined by the method of Bradford, Anal. Biochem. 72:248-254 (1976), which is hereby incorporated by reference.
Activity was determined as previously described by Huang et al., J. Biol. Chem. 264:7844-7849 (1989), which is hereby incorporated by reference, using NADPH as the cofactor at pH 8.7 in 0.1 M […] or NADH at pH 6.5 in […]. The rate of activity was measured as the increase in 450 nm absorbance at 25° C. Specific activity is expressed in units/mg protein, where 1 unit catalyzes the formation of 1 nmol bilirubin/min.

[3] = target: protein kinase C (a mixture containing equal amounts of isozymes α, β and γ) (Promega); test: cell-based or functional assay

## QKLCHQKK [peptide 2, ID; No. 19]
PKC
  Vmax of the PKC reaction with respect to ATP: 3.12 pmol/min
  Vmax of the PKC reaction with respect to MBP: 1.82 pmol/min
  Km for the substrate (MBP) of the PKC reaction: 0.12 mg/mL
PKC; peptide 50 μM, MBP substrate
  inhibition of PKC activity: more than 75%
PKC; peptide 50 μM
  nature of kinetics with respect to substrate concentration: uncompetitive

## KKRIMHC [peptide 1, ID; No. 18]
PKC
  Vmax of the PKC reaction with respect to ATP: 4.2 pmol/min
  Vmax of the PKC reaction with respect to MBP: 2.92 pmol/min
  Km for the substrate (MBP) of the PKC reaction: 0.39 mg/mL
PKC; peptide 50 μM, MBP substrate
  effect on PKC activity: stimulated PKC activity
PKC; peptide 50 μM
  nature of kinetics with respect to substrate concentration: mixed kinetics

## RKRCLRRL [PKCI peptide, ID; No. 29, reference compound]
PKC; PKC preincubated 15 min at 30° C., MBP substrate
  dose dependence of PKC activity (^32P into MBP): dose-dependent inhibition of activity
PKC; peptide 50 μM, MBP substrate
  inhibition of PKC activity: 90%

B1: Ser^44: hBVR SEQ. ID. No. 1 with Ser^44→Ala within one of the kinase motifs (protein, listed as Homo sapiens)
chain: MNAEPERKFGVVVVGVGRAGSVRMRDLRNPHPSSAFLNLIGFVARRELGSIDGVQQISLEDALSSQEVEVAYICSESSSHEDYIRQFLNAGKHVLVEYPMTLSLAAAQELWELAEQKGKVLHEEHVELLMEEFAFLKKEVVGKDLLKGSLLFTSDPLEEDRFGFPAFSGISRLTWLVSLFGELSLVSATLEERKEDQYMKMTVCLETEKKSPLSWIEEKGPGLKRNRYLSFHFKSGSLENVPNVGVNKNIFLKDQNIFVQKLLGQFSEKELAAEKKRILHCLGLAEEIQKYCCSRK
[1]
  Activity (nmol bilirubin/min/mg) pH 6.7 + NADH: 7443 nmol bilirubin/min/mg
  Activity (nmol bilirubin/min/mg) pH 8.7 + NADPH: 333 nmol bilirubin/min/mg
[1]; pH 6.7, NADH, versus wild type
  increase in activity at pH 6.7 with NADH: 2.5 fold
[1]; pH 8.7, NADPH, versus wild type
  reduction in NADPH-dependent activity: 70-75%
[2]
  enzyme activity: did not display loss of enzyme activity

B2: PKC inhibitor peptide RKRCLRRL (peptide)
peptide: RKRCLRRL
[3]
  inhibition of PKC activity, peptide at the same concentration as BVR peptide 2: 90%

B3: BVR peptide K274KRIMHC280 (peptide 1) (peptide)
peptide: KKRIMHC
[3]
  Km of the PKC reaction for the substrate MBP, peptide 50 µM (control 0.165 mg/ml): 0.39 mg/mL
  Vmax of the PKC reaction with respect to the cofactor ATP, peptide 50 µM (control 3.81 pmol/min): 4.2 pmol/min
  Vmax of the PKC reaction with respect to the substrate MBP, peptide 50 µM (control 2.25 pmol/min): 2.92 pmol/min

B4: BVR peptide Q288KLCHQKK295 (peptide 2) (peptide)
peptide: QKLCHQKK
[3]
  Km of the PKC reaction for the substrate MBP, peptide 50 µM (control 0.165 mg/ml): 0.12 mg/mL
  Vmax of the PKC reaction with respect to the cofactor ATP, peptide 50 µM (control 3.81 pmol/min): 3.12 pmol/min
  Vmax of the PKC reaction with respect to the substrate MBP, peptide 50 µM (control 2.25 pmol/min): 1.82 pmol/min
  inhibition of PKC activity with MBP as substrate, peptide 50 µM: > 75%

B5: Lys^92/His^93: hBVR with Lys^92His^93→Ala-Ala within the oxidoreductase motif (protein, UniProt P53004 3-296, looked up, variant K92A H93A)
Biliverdin reductase A: AEPERKFGVVVVGVGRAGSVRMRDLRNPHPSSAFLNLIGFVSRRELGSIDGVQQISLEDALSSQEVEVAYICSESSSHEDYIRQFLNAGAAVLVEYPMTLSLAAAQELWELAEQKGKVLHEEHVELLMEEFAFLKKEVVGKDLLKGSLLFTAGPLEEERFGFPAFSGISRLTWLVSLFGELSLVSATLEERKEDQYMKMTVCLETEKKSPLSWIEEKGPGLKRNRYLSFHFKSGSLENVPNVGVNKNIFLKDQNIFVQKLLGQFSEKELAAEKKRILHCLGLAEEIQKYCCSRK
[1]
  Activity (nmol bilirubin/min/mg) pH 6.7 + NADH: 0 nmol bilirubin/min/mg
  Activity (nmol bilirubin/min/mg) pH 8.7 + NADPH: 0 nmol bilirubin/min/mg
[1]; pH 6.7 with NADH
  reductase activity relative to the control (wild type): loss of enzyme activity
[1]; pH 8.7 with NADPH
  reductase activity relative to the control (wild type): loss of enzyme activity

B6: Cys^74,204^,^281,292,293: hBVR construct with all 5 Cys residues combined changed to Ala (protein, UniProt P53004 3-296, looked up, variant C74A C204A C281A C292A C293A)
Biliverdin reductase A: AEPERKFGVVVVGVGRAGSVRMRDLRNPHPSSAFLNLIGFVSRRELGSIDGVQQISLEDALSSQEVEVAYIASESSSHEDYIRQFLNAGKHVLVEYPMTLSLAAAQELWELAEQKGKVLHEEHVELLMEEFAFLKKEVVGKDLLKGSLLFTAGPLEEERFGFPAFSGISRLTWLVSLFGELSLVSATLEERKEDQYMKMTVALETEKKSPLSWIEEKGPGLKRNRYLSFHFKSGSLENVPNVGVNKNIFLKDQNIFVQKLLGQFSEKELAAEKKRILHALGLAEEIQKYAASRK
[1]
  Activity % pH 6.7 + NADH: 1%
  Activity % pH 8.7 + NADPH: 10%

B7: Cys^292^,^293: hBVR construct with Cys^292+Cys^293→Ala mutations (protein, UniProt P53004 3-296, looked up, variant C292A C293A)
Biliverdin reductase A: AEPERKFGVVVVGVGRAGSVRMRDLRNPHPSSAFLNLIGFVSRRELGSIDGVQQISLEDALSSQEVEVAYICSESSSHEDYIRQFLNAGKHVLVEYPMTLSLAAAQELWELAEQKGKVLHEEHVELLMEEFAFLKKEVVGKDLLKGSLLFTAGPLEEERFGFPAFSGISRLTWLVSLFGELSLVSATLEERKEDQYMKMTVCLETEKKSPLSWIEEKGPGLKRNRYLSFHFKSGSLENVPNVGVNKNIFLKDQNIFVQKLLGQFSEKELAAEKKRILHCLGLAEEIQKYAASRK
[1]
  Activity % pH 6.7 + NADH: 94%
  Activity % pH 8.7 + NADPH: 100%

B8: Cys^74: hBVR with Cys^74→Ala within a substrate binding domain (protein, UniProt P53004 3-296, looked up, variant C74A)
Biliverdin reductase A: AEPERKFGVVVVGVGRAGSVRMRDLRNPHPSSAFLNLIGFVSRRELGSIDGVQQISLEDALSSQEVEVAYIASESSSHEDYIRQFLNAGKHVLVEYPMTLSLAAAQELWELAEQKGKVLHEEHVELLMEEFAFLKKEVVGKDLLKGSLLFTAGPLEEERFGFPAFSGISRLTWLVSLFGELSLVSATLEERKEDQYMKMTVCLETEKKSPLSWIEEKGPGLKRNRYLSFHFKSGSLENVPNVGVNKNIFLKDQNIFVQKLLGQFSEKELAAEKKRILHCLGLAEEIQKYCCSRK
[1]
  Activity % pH 6.7 + NADH: 44%
  Activity % pH 8.7 + NADPH: 45%

B9: Cys^281: hBVR with Cys^281→Ala within the zinc finger domain (protein, UniProt P53004 3-296, looked up, variant C281A)
Biliverdin reductase A: AEPERKFGVVVVGVGRAGSVRMRDLRNPHPSSAFLNLIGFVSRRELGSIDGVQQISLEDALSSQEVEVAYICSESSSHEDYIRQFLNAGKHVLVEYPMTLSLAAAQELWELAEQKGKVLHEEHVELLMEEFAFLKKEVVGKDLLKGSLLFTAGPLEEERFGFPAFSGISRLTWLVSLFGELSLVSATLEERKEDQYMKMTVCLETEKKSPLSWIEEKGPGLKRNRYLSFHFKSGSLENVPNVGVNKNIFLKDQNIFVQKLLGQFSEKELAAEKKRILHALGLAEEIQKYCCSRK
[1]
  Activity % pH 6.7 + NADH: 31%
  Activity % pH 8.7 + NADPH: 23%
